Source: US20180127480A1

Legend:
[1] = target: biotinylated human SIRPα allele 1 domain 1 (a1d1) (human) (UniProt P78324); assay: SPR, Biacore T100, biotinylated SIRPα on SA chip, 25 C, 1:1 Langmuir model
[2] = target: biotinylated human SIRPα allele 2 domain 1 (a2d1) (human) (UniProt P78324); assay: as above
Sequence of biotinylated human SIRPα allele 2 domain 1 (a2d1) (human) (P78324 other isoform, or with tags, fused parts or gaps): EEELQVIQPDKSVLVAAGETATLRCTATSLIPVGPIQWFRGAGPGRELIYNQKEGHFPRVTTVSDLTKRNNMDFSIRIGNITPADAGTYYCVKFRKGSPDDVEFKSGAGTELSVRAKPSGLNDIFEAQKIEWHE

Sequence of biotinylated human SIRPα allele 1 domain 1 (a1d1) (human) (P78324 other isoform, or with tags, fused parts or gaps): as above

Kd [1]: 285 nM | Kd [2]: 476 nM
Substance: WT CD47 (human CD47 IgSF domain, C15G, C-terminal 8x histidine tag) (from UniProt Q08722 19-135) (ligand)
